B1: His-TvFACPα (natural protein)
chain: MSESENIKIIKTFLANAPPGEYEQCTAALRSIVNDEDLINRARSETLKTWAEEECIVVDVEDHKVIICKEACQRDGIYVDPVTSSLITYDFESRIATPIGDQANMSDFAKELQEELTAYAKNAYKENAAAGVYDTNNGIVIVLRGSSISLKNFRTGKTVAKYTLSKSGSLEGKIVSIQHFFEKGNAVCQHDGDCNTTCSFGDAKSVVKAIRTFEDEWLADYKTTLEKIGTNVLFQLRRKFPYSKQKINWQQEITVGGGMKC
notes: also called His-TvFACPα wild type; Wt; source: recombinant from pET28-His-TvFACPα, purified to homogeneity (protocol of the supplier, QIAGEN)
B2: HA-TvFACPα (natural protein)
chain: B1 chain
notes: also called HA-TvFACPα wild type; source: T. vaginalis TH17 trophozoites, transgenic (Flp-HA-TvFACPα), in lysate

Legend:
[1] = target: T1, GST-Tvactin (T. vaginalis, UniProt A0A8U0WPZ0 1-376); experiment: ELISA; solid-phase binding: 2.5 μM F-actin in F-buffer coated on a 96-well microplate; His-TvFACPα or His-△237 at 0-80 μM, 4°C overnight; anti-6×His detection, OD450; Scatchard plots; settings: both partners purified
T1 construct: The same construct stands as GST-Tvactin on beads (pull-down), as G-actin (in G-buffer) and as F-actin (polymer, in F-buffer); the assays tell these apart; No removal of GST is described; also called GST fused-α-actin; G-actin; source: polymerized to F-actin in F-buffer), purified on glutathione-conjugated sepharose beads

[2] = target: T1, GST-Tvactin; experiment: ELISA; solid-phase binding: 2.5 μM G-actin in G-buffer coated on a 96-well microplate; His-TvFACPα or His-△237 at 0-80 μM, 4°C overnight; anti-6×His detection, OD450; Scatchard plots; settings: both partners purified
[3] = target: T2, α-actin, endogenous (T. vaginalis) (T. vaginalis (endogenous in TH17 …, UniProt A0A8U0WPZ0 1-376)); experiment: co-sedimentation; actin biochemical fractionation of trophozoite lysates (Cytoskeleton Inc kit): 100,000× g for 1 hr, F-actin and associated proteins in the pellet, G-actin in the supernatant; western blotting; non-transgenic and transgenic TH17, flagellate and amoeboid forms, DMSO or TBB treatment; settings: partners not purified
T2 construct: α-actin of Trichomonas vaginalis detected by an anti-α-actin antibody as a 42-kDa band; In the cell fractionation it stands as F-actin in the 100,000× g pellet; also called 42-kDa α-actin; F-actin

Row | Binder | Kd [1] [µM] | Kd [2] [µM] | co-sedimented with F-actin, fold of the endogenous form of the non-transfectant [3] [fold]
1 | B1 | 8.36 | 4.45 | –
2 | B2 | – | – | ~2

— publication doi:10.1101/2022.06.09.495492, “An atypical F-actin capping protein modulates cytoskeleton behaviors crucial to colonization of Trichomonas vaginalis” (bioRxiv, 2022)
